Measured values as given in patent US20050170442A1.

Biological target: Biotin-labeled fluorescent peptide …(S*)PDK-(5-FAM)
Test: cell-based or functional assay

EC50 of enzyme titration (TR-FRET ratio, 400 nM substrate, 200 µM ATP)	Substance
0.025 µg/mL	GSK3α, rHuman (from UniProt P49840 1-483) (enzyme)
0.245 µg/mL	GSK3β, rHuman (from UniProt P49841 1-420) (enzyme)
